{
  "source": "the RNAGym collection of RNA variant scans (doi:10.1021/acssynbio.7b00057)",
  "parents": {"B1": {"name": "Pistol ribozyme (parent)", "chain": "GGGUCGUUGUUCCAUAAUCGCGUGGAUAUGGCACGCAAGUUUCUACCGGGCACCGUAAAUGUCCGACUGGAGCCGUUCGGGCGGCUAUAAACAGACCUCAGGCCCGAAGCGUGGCGGCACCUGCCGCCGGUGGUAAAAAAGAUCGGAAGAGCACACGUCU"}},
  "data": [
    {"variants_of": "B1", "test": "aptazyme ON/OFF ratio, guanine; higher = stronger switching; co-transcriptional cleavage with and without guanine", "values": [
      {"variant": "G9C U10G C12A C13U", "aptazyme ON/OFF ratio": 1.32},
      {"variant": "U7G U8C G9U U10G U11A C12G C13U", "aptazyme ON/OFF ratio": 1.25},
      {"variant": "U7C U8G G9C U10C U11G C12U C13A", "aptazyme ON/OFF ratio": 1.07},
      {"variant": "U7A U8G G9A U11G C12U C13A", "aptazyme ON/OFF ratio": 1.12},
      {"variant": "U7A U8A U10G U11G C12G C13G", "aptazyme ON/OFF ratio": 1.09},
      {"variant": "U7C U8A G9A U10G U11G C12A C13U", "aptazyme ON/OFF ratio": 1.23},
      {"variant": "U7C G9C U10C U11A C12A C13G", "aptazyme ON/OFF ratio": 1.05},
      {"variant": "U8C U10A U11C C13A", "aptazyme ON/OFF ratio": 1.02},
      {"variant": "G9U U11C C12G C13A", "aptazyme ON/OFF ratio": 1.3},
      {"variant": "U7A U8G G9U U10C U11G C12U", "aptazyme ON/OFF ratio": 1.21},
      {"variant": "U8G G9A U10G U11C C12U C13A", "aptazyme ON/OFF ratio": 1.06},
      {"variant": "U8G G9A U11C C12A", "aptazyme ON/OFF ratio": 1.34},
      {"variant": "U7G U8A G9A U10C U11C C12G", "aptazyme ON/OFF ratio": 1.09},
      {"variant": "U7C G9A U10A U11A C13G", "aptazyme ON/OFF ratio": 1.04},
      {"variant": "U7C U8A G9A U10C U11C C12G", "aptazyme ON/OFF ratio": 1.09},
      {"variant": "G9U U10C U11A C12A C13A", "aptazyme ON/OFF ratio": 1.53},
      {"variant": "U7C U8G U11C C12G C13A", "aptazyme ON/OFF ratio": 1.15},
      {"variant": "U7C U11G", "aptazyme ON/OFF ratio": 1.2},
      {"variant": "U7G G9U U10C U11A C12U C13U", "aptazyme ON/OFF ratio": 1.33},
      {"variant": "U7G G9U U10C U11A C12U C13G", "aptazyme ON/OFF ratio": 1.23},
      {"variant": "U7A U8G U10A U11A C13A", "aptazyme ON/OFF ratio": 1.28},
      {"variant": "U8A G9U U10A U11A C12U C13A", "aptazyme ON/OFF ratio": 1.21},
      {"variant": "U7C U8G G9C U10G C12U C13U", "aptazyme ON/OFF ratio": 1.35},
      {"variant": "U8A U10C U11A C12A C13G", "aptazyme ON/OFF ratio": 1.1},
      {"variant": "U7C G9U U10C C12G", "aptazyme ON/OFF ratio": 1.09},
      {"variant": "U7A U8G G9C U11G C13A", "aptazyme ON/OFF ratio": 1.43},
      {"variant": "U7A U8A G9A U10C C13G", "aptazyme ON/OFF ratio": 1.04},
      {"variant": "U7G U8C G9A U11G C12A C13A", "aptazyme ON/OFF ratio": 1.1},
      {"variant": "U7G G9U U10A U11A C12U", "aptazyme ON/OFF ratio": 1.54},
      {"variant": "G9U U10C U11C C12U C13G", "aptazyme ON/OFF ratio": 1.09},
      {"variant": "U7G U8A G9A U10C U11A C12U C13A", "aptazyme ON/OFF ratio": 1.09},
      {"variant": "U7G U8C G9U U10A U11G C12U C13U", "aptazyme ON/OFF ratio": 1.16},
      {"variant": "U7C U8G G9A U10G U11A", "aptazyme ON/OFF ratio": 1.05},
      {"variant": "U7C U8G G9A U10G U11C", "aptazyme ON/OFF ratio": 1.06},
      {"variant": "U7A U8A G9C U10A U11A C13U", "aptazyme ON/OFF ratio": 1.27},
      {"variant": "U7G U8G G9C U10G", "aptazyme ON/OFF ratio": 1.74},
      {"variant": "U7G U8A U11C C13U", "aptazyme ON/OFF ratio": 1.2},
      {"variant": "U7C U8C G9A U10G U11C C12U C13G", "aptazyme ON/OFF ratio": 1.18},
      {"variant": "U8A U10A U11A C13A", "aptazyme ON/OFF ratio": 1.12},
      {"variant": "U8A G9U", "aptazyme ON/OFF ratio": 2.15},
      {"variant": "U7C U8G G9A U11C C12G C13U", "aptazyme ON/OFF ratio": 1.1},
      {"variant": "U7A U8A G9C U10A C12U", "aptazyme ON/OFF ratio": 1.15},
      {"variant": "U7A U8G U11A C12G C13G", "aptazyme ON/OFF ratio": 1.07},
      {"variant": "U7G U8G G9U U10G U11C C13A", "aptazyme ON/OFF ratio": 1.18},
      {"variant": "U7C U8C U10C U11G C12A", "aptazyme ON/OFF ratio": 1.38},
      {"variant": "U7C U8G G9A U10A C12U C13G", "aptazyme ON/OFF ratio": 1.17},
      {"variant": "U7G U8G G9C U10A U11C C13U", "aptazyme ON/OFF ratio": 1.07},
      {"variant": "U7G U10G U11A C12G", "aptazyme ON/OFF ratio": 1.08},
      {"variant": "U7G U8G G9A U10A U11C C12G C13G", "aptazyme ON/OFF ratio": 1.22},
      {"variant": "U7A G9C U11C C12U", "aptazyme ON/OFF ratio": 1.09},
      {"variant": "U8A G9U U11C C12A", "aptazyme ON/OFF ratio": 1},
      {"variant": "G9A U10C C12A C13U", "aptazyme ON/OFF ratio": 1.19},
      {"variant": "U7A G9U U11A C12G C13A", "aptazyme ON/OFF ratio": 1.08},
      {"variant": "U7C U8A G9U U10C U11C C12G C13A", "aptazyme ON/OFF ratio": 1.09},
      {"variant": "U7A U8A G9U U10A U11G C12A", "aptazyme ON/OFF ratio": 1.07},
      {"variant": "U7G U8G G9U U11C C13U", "aptazyme ON/OFF ratio": 1.41},
      {"variant": "U7C U10G U11C C12U C13G", "aptazyme ON/OFF ratio": 1.16},
      {"variant": "U7A U8G G9U U10C U11G C12A C13A", "aptazyme ON/OFF ratio": 1.16},
      {"variant": "U7G G9A U10C U11C C13A", "aptazyme ON/OFF ratio": 1.04},
      {"variant": "U7G U8A G9C U10G C13U", "aptazyme ON/OFF ratio": 1.1},
      {"variant": "U7C U10C C12A C13G", "aptazyme ON/OFF ratio": 1.18},
      {"variant": "U7G U8C U10C C13A", "aptazyme ON/OFF ratio": 1.07},
      {"variant": "U7C U8G U10C U11C C13U", "aptazyme ON/OFF ratio": 1.11},
      {"variant": "U7A U10G U11A", "aptazyme ON/OFF ratio": 1.06},
      {"variant": "U7G U8G G9U U11C C12G C13A", "aptazyme ON/OFF ratio": 1.14},
      {"variant": "U7A U8G G9A U10A U11C C12A C13U", "aptazyme ON/OFF ratio": 1.16},
      {"variant": "U7A U8G G9U C12U C13G", "aptazyme ON/OFF ratio": 1.17},
      {"variant": "U7G U8A U10C U11G", "aptazyme ON/OFF ratio": 2.09},
      {"variant": "U7G G9A C13U", "aptazyme ON/OFF ratio": 1.49},
      {"variant": "U7C G9C U10A U11C C12G C13A", "aptazyme ON/OFF ratio": 1.07},
      {"variant": "U8C U11A C12G C13U", "aptazyme ON/OFF ratio": 1.14},
      {"variant": "U7C G9U U10A U11G", "aptazyme ON/OFF ratio": 1.31},
      {"variant": "U8C G9C U10A U11C C13U", "aptazyme ON/OFF ratio": 1.14},
      {"variant": "U7G U8A G9U U10C U11G", "aptazyme ON/OFF ratio": 1.24},
      {"variant": "U7G U8G G9A U10A U11A C12A C13A", "aptazyme ON/OFF ratio": 1.11},
      {"variant": "U7G U8G G9U U10G C12A C13A", "aptazyme ON/OFF ratio": 1.09},
      {"variant": "U7C G9A C12A", "aptazyme ON/OFF ratio": 1.33},
      {"variant": "U7C G9C U10G C12G", "aptazyme ON/OFF ratio": 1.13},
      {"variant": "U7C G9U U10A C12G C13A", "aptazyme ON/OFF ratio": 1.24},
      {"variant": "U7C U8G G9U C13U", "aptazyme ON/OFF ratio": 1.55},
      {"variant": "U8C G9C U11A C12U C13A", "aptazyme ON/OFF ratio": 1.12},
      {"variant": "U8A G9U U10A C12U C13A", "aptazyme ON/OFF ratio": 1.25},
      {"variant": "U7C U8C G9U U10C U11G C12U", "aptazyme ON/OFF ratio": 1.22}
    ]}
  ]
}
